According to PMC6193965:

Target: T1, mouse MILL2 extracellular domain (heavy chain) (mouse)
T1 sequence (Q8HWE5 whole entry, looked up): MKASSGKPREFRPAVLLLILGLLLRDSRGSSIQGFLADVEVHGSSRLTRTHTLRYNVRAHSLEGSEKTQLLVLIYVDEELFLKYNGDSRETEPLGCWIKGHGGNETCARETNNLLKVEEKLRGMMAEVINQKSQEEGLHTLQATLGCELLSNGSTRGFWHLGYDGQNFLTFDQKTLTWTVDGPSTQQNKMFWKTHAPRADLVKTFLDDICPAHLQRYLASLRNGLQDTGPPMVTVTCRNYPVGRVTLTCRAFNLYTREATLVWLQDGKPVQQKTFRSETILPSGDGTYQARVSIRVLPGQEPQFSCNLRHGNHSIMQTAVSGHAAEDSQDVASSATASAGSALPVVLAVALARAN
Assay: SEC; MILL2 refolded by rapid dilution with 10 μM refolded β2m; complex purified on Superdex 75 and then by cation exchange (RESOURCE S); stoichiometry of the purified complex (Supplementary Fig. 1c)

## mouse β2-microglobulin (from UniProt P01887 21-119) (natural protein)
  stoichiometry N: 1
